Assay results taken from patent publication JP2008512352A (dated 2008).
Several values for one entry are separate records, joined by “and”; a condition that tells them apart may be missing. Equal values may be shown once.

B1: IMC-11F8 (antibody, V domains shown)
VH: QVQLQESGPGLVKPSQTLSLTCTVSGGSISSGDYYWSWIRQPPGKGLEWIGYIYYSGSTDYNPSLKSRVTMSVDTSKNQFSLKVNSVTAADTAVYYCARVSIFGVGTFDYWGQGTLVTVSS
VL: EIVMTQSPATLSLSPGERATLSCRASQSVSSYLAWYQQKPGQAPRLLIYDASNRATGIPARFSGSGSGTDFTLTISSLEPEDFAVYYCHQYGSTPLTFGGGTKAEIK
B2: 抗-EGFR/抗-IGFR ジ-ダイアボディ (bispecific antibody)
chain 1: B1 VH
chain 2: B1 VL
chain 3: EVQLVQSGAEVKKPGSSVKVSCKASGGTFSSYAISWVRQAPGQGLEWMGGIIPIFGTANYAQKFQGRVTITADKSTSTAYMELSSLRSEDTAVYYCARAPLRFLEWSTQDHYYYYYMDVWGKGTTVTVSS
chain 4: SSELTQDPAVSVALGQTVRITCQGDSLRSYYASWYQQKPGQAPVLVIYGKNNRPSGIPDRFSGSSSGNTASLTITGAQAEDEADYYCNSRDNSDNRLIFGGGTKLTVL
B3: IMC-A12 (antibody, V domains shown)
VH: B2 chain 3
VL: B2 chain 4

Assays:
[1] = target: EGFR (腫瘍細胞上) (UniProt P00533 25-1210, limits assumed); experiment: cell-based or functional assay
[2] = target: T1, ヒトEGFR (プレート被覆) (human, UniProt P00533 25-645); experiment: direct binding ELISA on immobilised EGFR (ED50: antibody concentration giving 50% of maximal binding)
T1 construct: extracellular domain; 'Extracellular domain' in the legend is read as applying to both EGFR and IGFR; also called 固定化EGFR

[3] = target: T2, IGFR 細胞外ドメイン (プレート被覆) (human, UniProt P08069 31-935); experiment: direct binding ELISA on immobilised IGFR (ED50: antibody concentration giving 50% of maximal binding)
T2 construct: extracellular domain; 'ヒト' in the legend is read as applying to both EGFR and IGFR; also called 固定化IGFR; IGF-IR

Row | Binder | DiFi細胞の増殖阻害 IC50 (MTT) [1] | EC50 [2] | EC50 [3]
1 | B1 | ~1 nM |  | 
2 | B2 | 25 nM | 0.1 nM and 0.2 nM | 0.25 nM and 0.5 nM
3 | B3 |  |  | 0.1 nM
